Consider 6 molecules from patent US20220340894A1 (CDR LIFE, published 2022).

Assay [1] has as its target T1, HLA-A2/MAGE-A4 complex (HLA-A*02:01 extracellular domain, human β2m, MAGE-A4 peptide 230-239) (human, UniProt P04439 25-299 at identity 0.94); P61769 21-119).
T1 construct: also called MAGE-A4/HLA-A2 complex; pMHC
The assay can be described thus: direct ELISA, plate coated with HLA-A2/MAGE-A4 complex, OD450 nm (top panel, 'Binding to HLA-A2/MAGE-A4', M0700-M0709). As for the experimental part:
(§1) All available hits were evaluated for their ability to bind MAGE-A4/HLA-A2 complex and a control peptide/HLA-A2 complex in a direct binding ELISA assay. […] Briefly, 96 well ELISA plates were coated with purified human MAGE-A4/HLA-A2 complex or control HLA-A2 complex. Serial dilutions of antibody molecules were added to the plate and detected by an anti-kappa light chain-HRP (Invitrogen) followed by goat anti-rabbit IgG(H+L) HRP (Southern Biotech). […] All tested molecules are rabbit-derived antibodies that are representative of antibodies identified from the nucleic acid libraries described herein.
For orientation: In an ELISA, binding on a coated surface is turned into a signal by an enzyme label.

Assay [2] concerns the target T1, HLA-A2/MAGE-A4 complex (HLA-A*02:01 …). The assay can be described thus: direct ELISA, plate coated with HLA-A2/MAGE-A4 complex, OD450 nm (second panel, 'Binding to HLA-A2/MAGE-A4', M0710-M0766). As for the experimental part:
as §1

The target of assay [3] is T2, MAGE-A4 peptide-HLA-A2 complex presented on cells (human).
T2 construct: whole, on cells; Used both for T2 cells pulsed with the peptide and for tumour cell lines that present it themselves; also called MAGE-A4 positive/HLA-A2 positive cells
Kind of assay: flow cytometry on T2 cells pulsed with MAGE-A4 peptide; relative MFI = binding over peptide loading (BB7.2). The method, then: (§2) TAP-deficient T2 cells were pulsed with HLA-A2-restricted peptides (MAGE-A4 or control peptides) and incubated with MAGE-A4 binders followed by fluorophore-labeled specific detection antibodies and analysis by flow cytometry.
(§3) Briefly, T-B hybrid T2 cells were incubated with serum-free RPMI1640 medium containing MAGE-A4 or control peptides. […] Peptide loading efficiency was verified by using the ratio between median fluorescent intensity (MFI) of HLA-A2-binding antibody BB7.2 on peptide loaded T2 cells and MFI of unloaded T2 cells (>1). T2 cells were incubated with each of the specific antibodies followed by fluorophore-labeled detection antibodies (anti-kappa light chain or anti-Flag). The cells were fixed and fluorescence was measured by flow cytometry.

The target of assay [4] is T3, control peptide 2 (Ctrl.2, …) displayed by HLA-A2 on T2 cells (human).
T3 construct: whole, on cells
The assay can be described thus: flow cytometry on T2 cells pulsed with control peptide 2; relative MFI = binding over peptide loading (BB7.2). The method, then:
as §2, §3

For assay [5], the target named is T4, control peptide 1 (Ctrl.1, …) displayed by HLA-A2 on T2 cells (human).
T4 construct: whole, on cells
Kind of assay: flow cytometry on T2 cells pulsed with control peptide 1; relative MFI = binding over peptide loading (BB7.2). The method, then:
as §2, §3
A general note: A flow cytometer gives signals particle by particle.

Assay [6] concerns the target T3, control peptide 2 (Ctrl.2, …) displayed …. The assay can be described thus: flow cytometry on T2 cells pulsed with control peptide 2; relative MFI = binding over peptide loading (BB7.2); antibody concentration not given. As for the experimental part: as §2, §3
Assay [7] concerns the target T5, control peptide 3 (Ctrl.3, …) displayed by HLA-A2 on T2 cells (human).
T5 construct: whole, on cells
Kind of assay: flow cytometry on T2 cells pulsed with control peptide 3; relative MFI = binding over peptide loading (BB7.2); antibody concentration not given. The method, then: as §2, §3

Assay [8] concerns the target T4, control peptide 1 (Ctrl.1, …) displayed …. Kind of assay: flow cytometry on T2 cells pulsed with control peptide 1; relative MFI = binding over peptide loading (BB7.2); antibody concentration not given. As for the experimental part:
as §2, §3

B1: M0702 (Fab, V domains shown)
VH: QEQLEESGGGLVTPGTPLTLTCTASGFSLSSYAMIWVRQAPGKGLEWIGTINDGGTAFYANWVKGRFTISRTSTTVDLKMTSPTTEDTATYFCARAYGSNGDVYWGYVNLWGQGTLVTVSS
VL: ELVMTQTPASVSEPVGGTVTIKCQASQSIGSNLAWYQQKPGQPPKLLIYAAANLASGVSSRFKGSRSGTEYTLTISGVQAADAATYYCQQGYSSSNVANVFGGGTELEILR
The term EC50 (read off the curve) denotes the concentration needed to bring the measured effect to its halfway point. A higher EC50 (read off the curve) goes with weaker potency. For B1, the “EC50 (read off the curve)” value in assay [1] was ~0.6 nM.

B2: M0766 (Fab, V domains shown)
VH: PEQLEESGGGLVTPGGVLTLTCTASGFSFSSYGVNWVRQAPGKGLEWIGFIFGDGTTYYANWAKGRFTISKTSTTVDLKMTSPTTEDTATYFCARDGYGGYDYIINLWGQGTLVTVSS
VL: AQVLTQTPASVSAAVGGTVSISCQSSQSVVNNNWLAWYQQKPGQPPKLLIYKASTLESGVPSRFKGSGSGTQFTLTISGVQADDAATYYCLGEFSCSSADCHAFGGGTELEILR
As to B2, the binding result in assay [2] is listed as “binds”.

B3: M0709 (Fab, V domains shown)
VH: QSVKESGGRLVTPGTPLTLTCTVSGFSLSNYAMSWVRQAPGKGLEYIGIVSSGGTTYYASWAKGRFTISKTSTTVDLKITSPTTEDTATYFCAKDLYYGPTTYSAFNLWGQGTLVTVSS
VL: SELVLTQPQSVSGSLGQTVSISCKRARDNIEDYYVHWYQQHPGKTPTIVIHKDDQRPSGVPDRFSGSIDSTSNSASLTITGLLAEDEADYFCQSFDNDASPVFGGGTQLTVTG
As to B3, the binding result in assay [3], in assay [1], in assay [4] and in assay [5] was “binds” in each case.

B4: M0763 (Fab, V domains shown)
VH: B3 VH
VL: SELVLTQPASVQVNLGQTVSLTCTADTLSRSYASWYQLKPGQAPVLLIYRDTSRPSGVPDRFSGSSSGNTATLTISGAQAGDEGDYVCATSDGSGSNFQLFGGGTQLTVTG
For B4, the binding result in assay [2] is “binds”; in assay [6], “no binding”; in assay [3] it was “binds”; in assay [7], “no binding”; in assay [8] it was “no binding”.

B5: M0707 (Fab, V domains shown)
VH: QQQLEESGGGLVTPGTPLTLTCTVSGIDLSSYAMGWVRQAPGKGLEWIGTINDGGSAFYASWVKGRFTISRTSTTVDLKITSPTAEDTATYFCAKTYGTNGDVYWGYFNLWGQGTLVTVSS
VL: ELVMTQTPASVSEPVGGTVTIKCQASQSIGSNLAWYQQKPGQPPKLLIYYESILASGVPSRFSGSGSGTEYTLTISGAQADDAATYYCQQGYSSSNILNAFGGGTEVVVKR
Regarding B5, in assay [1], the binding result is “binds”.

B6: M0705 (Fab, V domains shown)
VH: QQQLVESGGRLVTPGTPLTLTCTASGIDLNSNAMSWVRQGPGKGLEWIGDIWSGGYTDYASWAKGRFTISKTSTTVDLKMTSLTAADTATYFCARDRLAGDGVVDYDLWGQGTLVTVSS
VL: ELDMTQTPASVEVAVGGTVTIKCQASQNIYSNLAWYQQKPGQRPKLLIYGASTLASGVPSRFKGSGSGTEYTLTINGVQAADAATYYCQQGFSSSNVDNVFGGGTEVVVKR
On to B6, for which the binding result in assay [1] is “binds”.
